Columns and labels:
[1] = biological target: BKPyV VLP genotype II (VP1 virus-like particles) (BK polyomavirus) (UniProt P03088); test: ELISA
[2] = biological target: BKPyV VLP genotype III (VP1 virus-like particles) (BK polyomavirus) (UniProt P03088); test: ELISA
[3] = biological target: BKPyV VLP genotype IVc2 (VP1 virus-like particles) (BK polyomavirus) (UniProt P03088); test: ELISA
[4] = biological target: BKPyV VLP genotype Ia (VP1 virus-like particles) (BK polyomavirus) (UniProt P03088); test: ELISA
[5] = biological target: BKPyV VLP genotype II (VP1 virus-like particles) (BK polyomavirus) (UniProt P03088); test: SPR; avidity
[6] = biological target: BKPyV VLP genotype III (VP1 virus-like particles) (BK polyomavirus) (UniProt P03088); test: SPR; avidity
[7] = biological target: BKPyV VLP genotype IVc2 (VP1 virus-like particles) (BK polyomavirus) (UniProt P03088); test: SPR; avidity
[8] = biological target: BKPyV VLP genotype Ia (VP1 virus-like particles) (BK polyomavirus) (UniProt P03088); test: SPR; avidity

Sequence of BKPyV VLP genotype Ia (VP1 virus-like particles) (BK polyomavirus) (P03088 whole entry): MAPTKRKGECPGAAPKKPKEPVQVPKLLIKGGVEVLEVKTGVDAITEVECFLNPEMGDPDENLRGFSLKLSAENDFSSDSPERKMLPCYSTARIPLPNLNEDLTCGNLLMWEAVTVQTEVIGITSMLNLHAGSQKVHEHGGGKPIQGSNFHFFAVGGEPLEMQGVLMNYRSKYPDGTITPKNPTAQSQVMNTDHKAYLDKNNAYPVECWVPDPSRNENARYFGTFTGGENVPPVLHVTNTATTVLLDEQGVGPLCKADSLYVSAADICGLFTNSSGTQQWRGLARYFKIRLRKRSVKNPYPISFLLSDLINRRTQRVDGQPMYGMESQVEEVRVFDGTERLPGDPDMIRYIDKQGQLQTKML
Sequence of BKPyV VLP genotype IVc2 (VP1 virus-like particles) (BK polyomavirus) (P03088 whole entry, looked up): as the sequence (P03088 whole entry) above
Sequence of BKPyV VLP genotype II (VP1 virus-like particles) (BK polyomavirus) (P03088 whole entry, looked up): as the sequence (P03088 whole entry) above
Sequence of BKPyV VLP genotype III (VP1 virus-like particles) (BK polyomavirus) (P03088 whole entry, looked up): as the sequence (P03088 whole entry) above

Substance | EC50 [1] | EC50 [2] | EC50 [3] | EC50 [4] | Kd [5] | Kd [6] | Kd [7] | Kd [8]
antibody 120 (clonotype 120, 41F17-like) (from UniProt P01857) | 260 pM | 240 pM | 190 pM | 170 pM | 160 pM | 210 pM | 860 pM | 110 pM
antibody 198 (clonotype 198, 41F17-like) (from UniProt P01857) | 1410 pM | 900 pM | 430 pM | 540 pM | 2290 pM | 110 pM | 280 pM | 1630 pM
antibody 160 (clonotype 160, 41F17-like) (from UniProt P01857) | 380 pM | 130 pM | 140 pM | 140 pM | 280 pM | 170 pM | 270 pM | 230 pM
